Where no end group is shown, it is not given here.

Assay [1] deals with normal recombinant fibrinogen (UniProt P02671). Put plainly: plasmin protection assay.
For assay [2], the target named is recombinant γN308K fibrinogen (UniProt P02671). Put plainly: plasmin protection assay.

As for GPRP-NH2 [GPRP-amide], the GPRP concentration of full protection in assay [1] was found to be 5 mM. In addition, in assay [2], the GPRP concentration at which fragment D1 was readily evident is 0.5 mM, the GPRP concentration of full protection is more than 20 mM and the fold weaker than normal fibrinogen stood at 10 fold.
